Target: T1, human GARP (Glycoprotein A Repetitions Predominant, LRRC32) stably expressed on Pre-B (70Z/3) cells (human, UniProt Q14392 20-662)
T1 construct: whole, on cells; also called hGARP; huGARP
T1 sequence (looked up): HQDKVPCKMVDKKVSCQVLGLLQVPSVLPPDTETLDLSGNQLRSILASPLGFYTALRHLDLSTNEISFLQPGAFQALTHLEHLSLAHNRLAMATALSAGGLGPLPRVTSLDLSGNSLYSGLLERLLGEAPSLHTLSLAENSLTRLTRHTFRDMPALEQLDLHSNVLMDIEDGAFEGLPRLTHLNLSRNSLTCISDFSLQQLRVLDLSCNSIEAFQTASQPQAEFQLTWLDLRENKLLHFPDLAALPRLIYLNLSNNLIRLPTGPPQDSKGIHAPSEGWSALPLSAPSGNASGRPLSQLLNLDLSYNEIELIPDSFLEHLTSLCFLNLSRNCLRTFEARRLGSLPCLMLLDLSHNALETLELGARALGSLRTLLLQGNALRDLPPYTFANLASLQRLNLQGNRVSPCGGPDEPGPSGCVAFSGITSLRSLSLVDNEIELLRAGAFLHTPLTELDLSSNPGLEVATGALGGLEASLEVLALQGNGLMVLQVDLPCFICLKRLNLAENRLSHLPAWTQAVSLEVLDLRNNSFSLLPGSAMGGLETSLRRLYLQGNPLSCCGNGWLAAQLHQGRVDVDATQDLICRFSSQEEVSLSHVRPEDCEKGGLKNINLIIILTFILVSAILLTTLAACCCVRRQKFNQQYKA
Assay: flow cytometry on Pre-B cells stably expressing human GARP (FIG. 7A)

binding result: binds
B1: 5C5 anti-GARP monoclonal antibody (antibody, V domains shown)
VH: EVKLVESGGGSVKPGGSLKLSCAASGFTFSNYVMSWVRQTPEKRLEWVATISSGGSYTYYPDSVKGRLTISRDNAKNTLYLQMSSLRSEDTAMYYCARGYDNGDYVMDYWGQGTSVTVSS
VL: DIVLTQSPASLAVSLGQRATISCRASESVDTYGNSFMHWYQQIPGQPPKVLIYRASNLESGIPARFSGSGSRTDFTLTINPVEAGDVATYYCQQTNEHPPTFGGGTKLEIK
notes: Mouse hybridoma mAb; also called 5C5 (IgG2a)

Source: patent US20210292433A1 (MUSC FOUNDATION FOR RESEARCH DEVELOPMENT, published 2021)
